According to article PMC8809517, “Cofactor-independent RNA editing by a synthetic S-type PPR protein”:

T1: GFP-9S library array, motif 4 ND N98V;D124E (synthetic construct, N98V;D124E)
T1 chain: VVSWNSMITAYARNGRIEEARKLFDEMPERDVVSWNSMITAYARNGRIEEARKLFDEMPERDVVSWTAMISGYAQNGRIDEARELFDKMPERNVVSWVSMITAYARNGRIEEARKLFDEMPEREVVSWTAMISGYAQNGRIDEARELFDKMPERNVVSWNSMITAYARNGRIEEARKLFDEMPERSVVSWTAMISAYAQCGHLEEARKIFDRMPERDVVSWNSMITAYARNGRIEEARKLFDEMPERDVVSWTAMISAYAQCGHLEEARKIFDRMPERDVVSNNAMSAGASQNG

T2: GFP-9S library array, motif 4 ND N98E;D124I (synthetic construct, N98E;D124I)
T2 chain: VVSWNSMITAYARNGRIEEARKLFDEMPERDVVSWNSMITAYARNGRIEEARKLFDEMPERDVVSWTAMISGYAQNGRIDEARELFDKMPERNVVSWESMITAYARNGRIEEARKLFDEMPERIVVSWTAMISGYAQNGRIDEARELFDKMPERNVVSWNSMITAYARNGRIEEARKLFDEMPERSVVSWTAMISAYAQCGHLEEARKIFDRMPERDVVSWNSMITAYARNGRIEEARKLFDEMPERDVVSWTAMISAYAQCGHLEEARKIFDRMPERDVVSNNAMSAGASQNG

T3: GFP-9S library array, motif 4 ND N98G (synthetic construct, N98G)
T3 chain: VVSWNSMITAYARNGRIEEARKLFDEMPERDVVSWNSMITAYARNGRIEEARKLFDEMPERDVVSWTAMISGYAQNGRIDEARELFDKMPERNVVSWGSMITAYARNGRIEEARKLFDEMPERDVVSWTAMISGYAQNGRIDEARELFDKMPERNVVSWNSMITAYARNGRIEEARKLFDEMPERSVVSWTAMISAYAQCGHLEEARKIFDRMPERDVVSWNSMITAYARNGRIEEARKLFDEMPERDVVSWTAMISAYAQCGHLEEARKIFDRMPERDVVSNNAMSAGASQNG

T4: GFP-9S library array, motif 4 ND N98Q;D124L (synthetic construct, N98Q;D124L)
T4 chain: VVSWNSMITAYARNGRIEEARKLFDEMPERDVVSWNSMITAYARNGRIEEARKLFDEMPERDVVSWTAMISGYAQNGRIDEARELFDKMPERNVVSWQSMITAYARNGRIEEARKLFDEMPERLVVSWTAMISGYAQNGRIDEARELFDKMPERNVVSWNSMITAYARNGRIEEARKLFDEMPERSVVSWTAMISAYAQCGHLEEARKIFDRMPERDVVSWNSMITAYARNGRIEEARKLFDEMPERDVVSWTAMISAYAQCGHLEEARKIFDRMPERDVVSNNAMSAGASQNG

T5: GFP-9S library array, motif 4 ND N98W;D124M (synthetic construct, N98W;D124M)
T5 chain: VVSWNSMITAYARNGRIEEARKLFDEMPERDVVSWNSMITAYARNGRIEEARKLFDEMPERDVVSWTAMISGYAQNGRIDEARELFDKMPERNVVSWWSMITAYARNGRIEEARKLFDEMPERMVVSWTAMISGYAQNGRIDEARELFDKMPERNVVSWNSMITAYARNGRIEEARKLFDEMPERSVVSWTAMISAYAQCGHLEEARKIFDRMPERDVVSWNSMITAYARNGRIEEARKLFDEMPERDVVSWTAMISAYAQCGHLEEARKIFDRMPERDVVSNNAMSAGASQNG


Key:
Assay in all cases: high-throughput RNA pulldown from lysate on Ni-NTA beads; HRP: 50 mM Tris pH 8, 150 mM NaCl, 1 mM beta-mercaptoethanol, 50 ug/ml BSA, 3 ug/ml yeast RNA, 0.5% heparin; ITC and FP: Tris pH 8, 200 mM KCl, 5% glycerol; MST: 50 mM Tris pH 8, 200 mM NaCl, 1 mM DTT, BSA, heparin, 0.05% Tween 20
Conditions in all cases: tags: N-terminal His-eGFP
[1] = target: T1, GFP-9S library array, motif 4 ND …
[2] = target: T2, GFP-9S library array, motif 4 ND …
[3] = target: T3, GFP-9S library array, motif 4 ND N98G
[4] = target: T4, GFP-9S library array, motif 4 ND …
[5] = target: T5, GFP-9S library array, motif 4 ND …

Binder | Kd ([1]; label: 5' Cy5) [nM] | Kd ([2]; label: 5' Cy5) [nM] | Kd ([3]; label: 5' Cy5) [nM] | Kd ([4]; label: 5' Cy5) [nM] | Kd ([5]; label: 5' Cy5) [nM] | Kd ([1]; label: 5' IRDye 800CW) [nM] | Kd ([2]; label: 5' IRDye 800CW) [nM] | Kd ([3]; label: 5' IRDye 800CW) [nM] | Kd ([4]; label: 5' IRDye 800CW) [nM] | Kd ([5]; label: 5' IRDye 800CW) [nM]
AUUACACGUGA (ssRNA) [Cy5-rpoA] | 287 | 4240 | 402 | 122 | 96.1 |  |  |  |  | 
AUUAGACGUGA (ssRNA) [Cy5-rpoA-G] | 167 | 3860 | 32.5 | 84.1 | 102 |  |  |  |  | 
AUUAAACGUGA (ssRNA) [IR-rpoA-A] |  |  |  |  |  | 168 | 5140 | 495 | 155 | 235
AUUAUACGUGA (ssRNA) [IR-rpoA-U] |  |  |  |  |  | 244 | 4070 | 408 | 261 | 175
